Laboratory results as given in paper PMC5449386.

How the values were obtained:
Experiment in all cases: controlled Fab-arm exchange read by hydrophobic interaction chromatography; equimolar parental antibodies, 1 mg/mL each, 75 mM 2-MEA, 5 h at 31 °C; 2-MEA removed, overnight at 4 °C for re-oxidation; percent bispecific product from HIC peak areas
[1] = target: IgG1-CH3(mmG2a)-T370K-K409R parental antibody (7D8-derived) (human | mouse)
[2] = target: IgG1-CH3(mmG2a)-K409R parental antibody with the R411T mutation (7D8-derived) (human | mouse)
[3] = target: mmIgG2b-K409R parental antibody (7D8-derived) (human | mouse)
Sequence of mmIgG2b-K409R parental antibody (7D8-derived) (human | mouse) (heavy, as listed by the source, chain 1 of 2): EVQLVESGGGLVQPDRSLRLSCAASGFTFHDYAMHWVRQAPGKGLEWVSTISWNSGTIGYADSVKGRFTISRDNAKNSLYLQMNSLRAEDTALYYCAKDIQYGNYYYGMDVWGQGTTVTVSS
Sequence of mmIgG2b-K409R parental antibody (7D8-derived) (human | mouse) (light, as listed by the source, chain 2 of 2): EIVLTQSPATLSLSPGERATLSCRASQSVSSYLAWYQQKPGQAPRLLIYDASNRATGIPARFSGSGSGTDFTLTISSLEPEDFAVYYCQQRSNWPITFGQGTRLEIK

Sequence of IgG1-CH3(mmG2a)-T370K-K409R parental antibody (7D8-derived) (human | mouse) (heavy, as listed by the source, chain 1 of 2): as the sequence (heavy, as listed by the source, chain 1 of 2) above
Sequence of IgG1-CH3(mmG2a)-T370K-K409R parental antibody (7D8-derived) (human | mouse) (light, as listed by the source, chain 2 of 2): as the sequence (light, as listed by the source, chain 2 of 2) above
Sequence of IgG1-CH3(mmG2a)-K409R parental antibody with the R411T mutation (7D8-derived) (human | mouse) (heavy, as listed by the source, chain 1 of 2): as the sequence (heavy, as listed by the source, chain 1 of 2) above
Sequence of IgG1-CH3(mmG2a)-K409R parental antibody with the R411T mutation (7D8-derived) (human | mouse) (light, as listed by the source, chain 2 of 2): as the sequence (light, as listed by the source, chain 2 of 2) above

cFAE efficiency (percent bispecific product by HIC) [1] [%] | cFAE efficiency (percent bispecific product by HIC) [2] [%] | cFAE efficiency (percent bispecific product by HIC) [3] [%] | Substance
> 90 |  |  | IgG1-CH3(mmG2a)-F405L parental antibody (2F8-derived)
76 |  |  | IgG1-CH3(mmG2a)-F405L parental antibody with the T370K mutation (2F8-derived)
> 90 | 61 |  | IgG1-CH3(mmG2a)-F405L-R411T parental antibody (2F8-derived)
 |  | 80 | mmIgG2b-F405L parental antibody (2F8-derived)
